Values quoted from earlier work, collected in US20070141059A1, “Use of cathepsin s inhibitors for treating an immune response caused by administration of a small molecule therapeutic or biologic” (AXYS Pharmaceuticals, Inc., priority 2003, published 2007).
One block for each molecule: values may come before it.

How the values were obtained:
[1] = patients taking heparin

Molecule: OKT3: murine monoclonal antibody directed towards CD-3 domain of activated T-cells
patients producing antibodies versus the therapy (in clinical trials): 20-40%

Molecule: Remicade®: biologic; biological agent that induces the production of specific immunoglobulins
patients generating neutralizing antibodies (patients taking the biologic): 10%

patients experiencing heparin induced thrombocytopenia (HIT) [1]: ~3%
Molecule: heparin

B1: Betaseron®: biologic; biological agent that induces the production of specific immunoglobulins (protein, UniProt P01574 22-187, looked up, variant C17S)
Interferon beta: MSYNLLGFLQRSSNFQSQKLLWQLNGRLEYCLKDRMNFDIPEEIKQLQQFQKEDAALTIYEMLQNIFAIFRQDSSSTGWNETIVENLLANVYHQINHLKTVLEEKLEKEDFTRGKLMSSLHLKRYYGRILHYLKAKEYSHCAWTIVRVEILRNFYFINRLTGYLRN
modifications: non-glycosylated, E. coli-expressed
notes: biologic; biological agent that induces the production of specific immunoglobulins
patients found to have serum-neutralizing activity (patients taking the biologic): 45%
